The DeepSol protein solubility set

Test: soluble on expression in E. coli; label from the status in PepcDB or PDB records

Sequence | soluble on expression in E. coli
MGSDKIHHHHHHMLQLTQVRIWVITFKSYLRMNKNMIKGMIVFATIAEKGSMSAAAQQLNLSSSAVSQQVTKLEMDMGISLFHRNTRNLTLTEAGSLFYENCRKVISIVDSTEQKLNNLKGIPSGELKIAAPVGFGGGLLSEPFQYLLATHPQISLNLVMQDGPIDIVNDGIDLAICIGPLSDSNLIARHLADWRMLLCTSPDYLPMHHNIKHPSELAAFNRINHNYTKGELLTHHPSLECFELTGQRISVNNMQTLIQLTLDGLGYAALPEPEVLDYLDKGVLVPLLPEWSFNTYSVYSVTSARDRQPAKVKEALNALSQYFSQTDFNHADQLKGGSYQTEHIKSGKEHRLGT | not soluble
MGSDKIHHHHHHMLSLKNINFKGVKGINELELTLSDNPINVLIGTNGIGKTKALEALYTLLIFTNTAFQKYAMNGKDVVFNECLIANEQVIRIDNTESYTYIKQFFTNNKLSHSYPVIFIAAQNRGKIKSENSNSISPLGNADTRAYNYFRHIIRSMENDFSSLNMDMPIEEWIIQRANSSTSYQDEEDNRELELISLLKILNKIDERISCDKSTLKISGDNQVSILVDGKKTKLSALSSGFASLIKIIQSIIAGYSFFTNSRQIENVEGYVLIDEIESHLHLEWQTKILPILSEVFPYTRFIITTHSSLILSQLYTGSASRLVHEGSKIINEDIPNASNFTLIDLLQEAFDIDLNQIKISSTTAKHQERVKKAILDLLGA | not soluble
MGSDKIHHHHHHMLSLSKPLQEFYRLDKCLSKHGTRFEFVNDKEIICSPDESNTHTFVILEGVVSLVRGDKVLIGIVQAPFIFGLADGVAKKEAQYKLIAESGCIGYRLSSSQTLAIIEQNQLWREAFCWIVWKSQVLELRDKQLIGNNSYDQIRATLMTMIEWDEELRSRIGVMNYIHQRTRVSRSVVAEVLAALRKGNYIEMNKGKLISINRLPSEY | not soluble
MGSDKIHHHHHHMLSMAGQVIAEDTAKAIEAAVHHEARLERDKARDGSRHPEAILNFFEVAPGQRVLDLFSGGGYYSELLARVVGEQGSVLVHNNQAYLPFAKEDLAERHYQERLPNAEVIISEADELQLPAASFDRIFFILGFHDTYYHEPGWPAIDRERLLQQMFTSLKPGGIVAIIDHDAAPESDTDTAHELHRLAKRHVVDAMEAAGFKLQGSLAVLENPEDKLTLSAFDEAVRGKTSRYVLMFVKPKL | not soluble
MGSDKIHHHHHHMLSNRELLQKLLKGIETGDPAAAAVVNEEKYIQHYPQTHEGSEGLAVLFARLAKTNPRVRFVRVFEDGDFAFAHNEYDFASLRVAFEVFRFENGRAVEHWDNIQPMLGPNPSGRGMLDGVTQITDLERTEANRALVRDFAQRVLVGRQLDFLGSCVDDGLIQHDPEIADGRAAYRAALEAVTNGQPRLHYTRLHRVLAEGNFVLCMCEGERDGVHSSFYDLFRVENDTIIEHWNTIEAIAPRNEWKNENGKF | not soluble
MGSDKIHHHHHHMLSRTADHLYWMARYIERAENMARVLDVTYNMSLVPNASQSETTLWEPALQIAGGVDSYRQEYGEVTAGGVVRFLAMDTKNPSSIYSTLRSARENARSVRVTLSAETWENINALWLEFSQFVGMDLMQKGLGEFCDWVKSRSHLFRGVSFGTMLRDDAFRFLRLGTFIERADNTARLLDVKYHLLLPSGEEVGGAVDYYEWSAILRAVSAFHAYQKVFNDAIEPWKVAELLVLREDMPRSLHACFSEITPILDQLNGRHSSECRRLAGELHARLRYGRMTDIFQGGLHEFLTDFITSNNNLGAEIQRTFLNAPINGLAAETE | not soluble
MGSDKIHHHHHHMLSTANITMQFGAKPLFENVSVKFGEGNRYGLIGANGCGKSTFMKILGGDLEPTSGQVMKDATTRLGKLSQDQFAFESERVIDTVIMGNTELWEVAAERERIYSQTEMSEEDGMKVADLEVRYAELDGYTAEARAGELLLGLGIPLVQHTQPMSVVAPGWKLRVLLAQALFSDPDVLLLDEPTNHLDINTIRWLEEILRSRSSTMLIISHDRHFLNRVCTHMADLDYGELTLFPGNYDEYMTAATQARERLHADNAKKKAEIAELQQFVSRFSANASKAKQATSRQRKIDKIQLDEVKPSSRVSPFIRFEQTKKIHRHALNAEKLSKAWGDNVLFERFDLQVEAGERVAIIGPNGIGKTTLLNCLVGTMTPDAGEVKWTDAAEVGYFAQDHADDFEGGETLFEWMRQWTTEGEQTVRGALGRMLFSNDDIGKSVKVISGGEQGRMLFGKLALQKPNVLVMDEPTNHLDMESIEALNLALENYPGTLIFVSHDREFVGSLATRIIELKDDDIVDFSGSYDDYLRSQSIYD | not soluble
MGSDKIHHHHHHMLTKERTLQYFHEYFSEWIEIYKRGAVRPVTYQKYLMTLQRLTELSPNLKICELDKRKYQTLLNDYAKTHERQTTMDFHHHLKSAILDAMDEGLLTIDPTRKVIIKGKPVSDKKNKFLSQFELQSLLKSLNLTDKPNWDWFILLVAKTGLRFSEALALTPKDFDFECQKVKISKTWNYKNAEGGFGETKNLSSKRTIQIDIQLNTQIERLSKDLADDEPIFVQGRVFNSTVNNRLKVLCKKAGVPIISAHCLRHTHASLLIFAGVSIASIAKRLGHSSISTTQETYLHIIKELESQDNDKIMSHLSMITQ | not soluble
MGSDKIHHHHHHMLYQLHEFQRSMLHPLTAWAQATAKTFTNPLSPLSLVPGAPRLAAGYELLYRLGKEYEKPAFDIKSVRSNGREIPIVEQTIMEKPFCRLVRFKRYADDPDTIKLLKDEPVVLVAAPLSGHHATLLRDTVRTLLQDHKVYVTDWVDARMVPAEHGPFHLSDYIYYIQEFIRHIGADKLHVISVCQPTVPVLAAISLMASAGEKTPLTMTMMGGPIDARKSPTAVNSLATNKSFEWFENNVIYTVPANYPGHGRRVYPGFLQHAGFVAMNPDRHLSSHYDYYLSLIQGDADDAEAHVRFYDEYNAVLDMAAEYYLDTIREVFQEFRLANGTWTIDGNPVRPQDIKGTALLTVEGELDDISGAGQTSAAHDLCAGIPQTHKHHLSAAKCGHYGIFSGRRWRDEIYPQLRDFIRKYR | not soluble
MGSDKIHHHHHHMMDRQFQHAMLPQPTHDELARQNFVQSLKTHIFRNISPGNKVVYEKLAKPKFEQEHQRPPQNRHEIREVMQHESYYRWTSALKRIHQEILWDAVNTSVGRQLPELIERAKDRGGELGTLTLDPNFQIPNYQKAVDIHCMPGGYHSEFTGGDVAAGATYDRGAYLYGLGWLGPLNNDMGLSIVQNYLLPEYPDFRPRKILDMGCSVGNSTLPYVDAYPDAEVHAIDVGAPMLRYGHARAEALGKRVHFWQQNAEHTNFPDESFDLVVSHILLHEIPPSAVRKVMQESYRLLAPGGIMLHLEAPLYRHLDVYTQFIFDWETANNNEPFWSAVRDLDLVTLATEAGFAPDKTFEKFVPNGAWKAKVTNGLFQNGNSGSLNTWFVVAATK | not soluble
MGSDKIHHHHHHMMFLFINISLAQTADTAVKSDELQTTTTSVDEVGVAPADPTPTLSKKELRRQRVAKRNLHYNILGGPSYTPDFGLLIGGSALMTFRMNPSDTTQQRSVVPMAIALMFEGGLNLFTKPQLFFKGDRFRIFGVFAYKNTLENFYGIGYSTNKDYPRGEDTSEYRYSGVQVNPWFLFRLGKSNFFAGPQIDFNYDKITKPAAGMIEQPSYIAAGGTDHGYSNLSSGLGFLLTYDTRDVPANAYRGTYLDFRGMMYNKAFGSDNNFYRLEIDYRQYKTLGKRKVLAWTVQTKNVFGNVPLTKYALSGTPFDLRGYYMGQFRDKSSHVMMAEYRQMINTDKSNWVKKMLNHVGYVAWGGCGFMGPTPGKIEGVLPNLGLGLRIEVQPRMNVRLDFGRDMVNKQNLFYFNMTEAF | not soluble
MGSDKIHHHHHHMMKIYKKNIDHYIMLSFEINEMNIPFTGQIVVKEDDEVTREVILGRAKKIHEWLVLVDHIFSPFRTNSELTLYNHRKIEMTGTNLLFQEVFALSIWAKEMTQGLFSANFVGKYNPTGAVKGWAIEKAERIQLEPLLSDPNFVAVNLNGGGDMQFSSSDKHNWQWEIGIVNPFDNKKVISCFRMKNGAIATSGTSQRGEHLFNSSTGRAIPEKNFNVISSSVIGSELTYSDIWATAIATTTINDHSWLKRLSGSGLRISYNKKSERWLNHEIIDQKELIYA | not soluble
MGSDKIHHHHHHMMKSNENNGAVTKSFAKKMESISPFELKNKLIEMADESIKKIAHTMLNAGRGNPNWIATTPREAFFLLGKFGLEECRRVMYLPEGIAGIPQKDGIAARFETFLKTNHSQPGAELLKGTYQYMLLEHAADPDTLVHEWAEGVVGDQYPVPDRILQFTEMIVQDYLAQEMCDRRPPKGKYDLFATEGGTAAMCYVFDSLQENFLLNKGDGIALMVPVFTPYIEIPQLRRYEFNVTEISADQMTTDGLHTWQYKDEDIDRLRNPQIKALFITNPSNPPSYTLSPETAARIVDIVKKDNPNLMIITDDVYGTFSPHFRSLMAELPQNTLCVYSFSKYFGATGWRDAVIALHEENIFDRMIAHLPEEQKTILNKRYSSLTLTPEKLKFIDRMVADSRQVALNHTAGLSLPQQTQMSLFASFAILDKENRYKNKMQEIIRRRLKALWDNTGFSLVDDPLRVGYYSEIDMLVWAKIFYGEEFVSYLKKTYSPLDVVFRLANETSLVLLNGGGFAGPEWSVRVSLANLNEKDYVKIGQGIKRILDEYAVKWQESRK | not soluble
MGSDKIHHHHHHMMLNQYQIFTMVDNLSLLHHKNDPMNKNDLINTKSTLCPCGSKQLYSKCCEPYHLSHAVAERPEHLMRSRYSAFVLRQFHYLITTHHADYLHGLTEQQLAQGDVQWLGLQVLSSKQESDHGEVTFKAWFIEDKHIDAIYECSSFIKQDGCWFYTHGQQMQTPLPSRNDACICSSGKKFKLCCAKLMR | not soluble
MGSDKIHHHHHHMMRLIRDLAQRPNPPDVGFQFVTDEEIGGRHGTGRLRDEGWHCDFMLCLEPTDLGIMFEHKGGMWAQLRIPGRAAHGSRPWEGDNPVYRLMQGIQAISERYPPPTGPHDWRTSVTPTEIRMGAGSRNQVPAEALVTFDIRWTADTTPETIQADLAAAFPDAEFISVMASAGLRTDPEHQEVGRIADIVERHIGHTPRFYREHFATDARYYSHIGIPAICLGPVGAGLHSAEEWVEIASLTSLYQIILDYIDTM | not soluble
MGSDKIHHHHHHMMRPALRSTSTPKSPLVTCVSHDLTVSAPQGVFLSGLNTKFRAYVGGFGSGKTYVGCLDLGLFAGQHPKTVQGYFAPTYRDIRDTFWPTVDEAAHSLGFTTKVKSADKEVEFYRGRSYYGTTICRSMDDPGGIVGFKIARALVDEIDILSKDKAQAAWRKIIARMRLVLPGVVNGIGVTTTPEGFRFVYDSFKREPKSNYSMVQASTYENEAFLPPDYISTLLEDYPEELIKAYLMGEFVNLTSGTVYRSYDRLRHRSTQSIQPREPLHIGQDFNVGNMASVVFVQRGEDWHAVDELQGLQDTPHLIEVLCDRYEGHHLTIYPDASGSSRKTVNASTSDIELLRKAGHAIRAPSTNPAVKDRILAVNTAFENGRLFVNALRCKAYAEALEQQAYDKNGEPDKSAGLDHHPDAGGYFVHQKMPVVKPTFTRQELRL | not soluble
MGSDKIHHHHHHMMVNESADQLYSFALLDEDAKREIRRSLLKAVALPGHLIPFASRDLPIARGWGTGGLQITLSIITPDDTLKVIDQGDDESVNAVNLRRLIHRTTGVATTTDTAAASLIQTRHRIPEEPLRADQILVLQVPMADPLRWVEPSLERAITMHGETDYGKMWVYLYESVVRAGDLRIASQYPVIVNHRYMMDTTPIPRWDVPKLHMAETLYLFGAGREKRIYAVPPHTPVEPLQFEDYPFRTEYRPGQRCARCGAENTFLTSHFVADANGGRWEMTCSDVAFCAKRQGEQRDR | not soluble
